Tests used:
Test in all cases: cell-based or functional assay
[1] = biological target: HIV-1 Env of pseudovirus Ce703010054_2A2 (HIV-1)
[2] = biological target: HIV-1 Env of pseudovirus THRO4156.18 (HIV-1)
[3] = biological target: HIV-1 Env of pseudovirus Ce704809221_1B3 (HIV-1)
[4] = biological target: HIV-1 Env of pseudovirus 1006_11_C3_1601 (HIV-1)
[5] = biological target: HIV-1 Env of pseudovirus SC05_8C11_2344 (HIV-1)
[6] = biological target: HIV-1 Env of pseudovirus Du156.12 (HIV-1)
[7] = biological target: HIV-1 Env of pseudovirus QH0692.42 (HIV-1)
[8] = biological target: HIV-1 Env of pseudovirus Ce1172_H1 (HIV-1)
[9] = biological target: HIV-1 Env of pseudovirus Du422.1 (HIV-1)
[10] = biological target: HIV-1 Env of pseudovirus ZM233M.PB6 (HIV-1)
[11] = biological target: HIV-1 Env of pseudovirus PVO.4 (HIV-1)
[12] = biological target: HIV-1 Env of pseudovirus Q769.d22 (HIV-1)
[13] = biological target: HIV-1 Env of pseudovirus ZM249M.PL1 (HIV-1)
[14] = biological target: HIV-1 Env of pseudovirus SC422661.8 (HIV-1)
[15] = biological target: HIV-1 Env of pseudovirus 1394C9G1(Rev-) (HIV-1)
[16] = biological target: HIV-1 Env of pseudovirus ZM214M.PL15 (HIV-1)
[17] = biological target: HIV-1 Env of pseudovirus 246F C1G (HIV-1)
[18] = biological target: HIV-1 Env of pseudovirus Ce0393_C3 (HIV-1)
[19] = biological target: HIV-1 Env of pseudovirus 1056_10_TA11_1826 (HIV-1)
[20] = biological target: HIV-1 Env of pseudovirus WITO4160.33 (HIV-1)
[21] = biological target: HIV-1 Env of pseudovirus 191084 B7-19 (HIV-1)

N49P19 (antibody)
IC50 [1]: > 50 µg/mL | IC80 [1]: > 50 µg/mL | MPI [1]: 0 | IC50 [2]: 17.1 µg/mL | IC80 [2]: > 50 µg/mL | MPI [2]: 69 | IC50 [3]: 3.75 µg/mL | IC80 [3]: 19.2 µg/mL | MPI [3]: 93 | IC50 [4]: 0.4 µg/mL | IC80 [4]: 1.33 µg/mL | MPI [4]: 100 | IC50 [5]: 0.954 µg/mL | IC80 [5]: 3.3 µg/mL | MPI [5]: 100 | IC50 [6]: 2.17 µg/mL | IC80 [6]: 17 µg/mL | MPI [6]: 87 | IC50 [7]: 2.56 µg/mL | IC80 [7]: 13.4 µg/mL | MPI [7]: 98 | IC50 [8]: > 50 µg/mL | IC80 [8]: > 50 µg/mL | MPI [8]: 3 | IC50 [9]: > 50 µg/mL | IC80 [9]: > 50 µg/mL | MPI [9]: 30 | IC50 [10]: > 50 µg/mL | IC80 [10]: > 50 µg/mL | MPI [10]: 4 | IC50 [11]: 0.85 µg/mL | IC80 [11]: 2.95 µg/mL | MPI [11]: 100 | IC50 [12]: 0.14 µg/mL | IC80 [12]: 0.519 µg/mL | MPI [12]: 100 | IC50 [13]: > 50 µg/mL | IC80 [13]: > 50 µg/mL | MPI [13]: 33 | IC50 [14]: 0.425 µg/mL | IC80 [14]: 1.42 µg/mL | MPI [14]: 100 | IC50 [15]: > 50 µg/mL | IC80 [15]: > 50 µg/mL | MPI [15]: 17 | IC50 [16]: 1.85 µg/mL | IC80 [16]: 14.8 µg/mL | MPI [16]: 98 | IC50 [17]: > 50 µg/mL | IC80 [17]: > 50 µg/mL | MPI [17]: 19 | IC50 [18]: > 50 µg/mL | IC80 [18]: > 50 µg/mL | MPI [18]: 31 | IC50 [19]: 0.925 µg/mL | IC80 [19]: 3.15 µg/mL | MPI [19]: 100 | IC50 [20]: 0.263 µg/mL | IC80 [20]: 1.29 µg/mL | MPI [20]: 100

N49P9 (antibody)
IC50 [1]: 0.187 µg/mL | IC80 [1]: 0.898 µg/mL | MPI [1]: 98 | IC50 [2]: 1.41 µg/mL | IC80 [2]: 8.21 µg/mL | MPI [2]: 99 | IC50 [3]: 0.133 µg/mL | IC80 [3]: 0.605 µg/mL | MPI [3]: 100 | IC50 [4]: 0.076 µg/mL | IC80 [4]: 0.231 µg/mL | MPI [4]: 100 | IC50 [5]: 0.473 µg/mL | IC80 [5]: 1.61 µg/mL | MPI [5]: 100 | IC50 [6]: 0.043 µg/mL | IC80 [6]: 0.13 µg/mL | MPI [6]: 100 | IC50 [7]: 0.352 µg/mL | IC80 [7]: 1.21 µg/mL | MPI [7]: 100 | IC50 [8]: 8.8 µg/mL | IC80 [8]: > 50 µg/mL | MPI [8]: 70 | IC50 [9]: > 50 µg/mL | IC80 [9]: > 50 µg/mL | MPI [9]: 17 | IC50 [10]: > 50 µg/mL | IC80 [10]: > 50 µg/mL | MPI [10]: 48 | IC50 [11]: 0.179 µg/mL | IC80 [11]: 0.628 µg/mL | MPI [11]: 100 | IC50 [12]: 0.036 µg/mL | IC80 [12]: 0.123 µg/mL | MPI [12]: 100 | IC50 [13]: 0.152 µg/mL | IC80 [13]: 0.801 µg/mL | MPI [13]: 97 | IC50 [14]: 0.241 µg/mL | IC80 [14]: 0.691 µg/mL | MPI [14]: 100 | IC50 [15]: > 50 µg/mL | IC80 [15]: > 50 µg/mL | MPI [15]: 40 | IC50 [16]: 0.477 µg/mL | IC80 [16]: 1.99 µg/mL | MPI [16]: 100 | IC50 [17]: > 50 µg/mL | IC80 [17]: > 50 µg/mL | MPI [17]: 48 | IC50 [18]: 0.189 µg/mL | IC80 [18]: 0.595 µg/mL | MPI [18]: 100 | IC50 [19]: 0.386 µg/mL | IC80 [19]: 1.32 µg/mL | MPI [19]: 100 | IC50 [20]: 0.058 µg/mL | IC80 [20]: 0.165 µg/mL | MPI [20]: 100

10E8 (antibody)
IC50, titer in TZM.bl cells [1]: 2.3 µg/mL | IC80, titer in TZM.bl cells [1]: 8.58 µg/mL | IC50, titer in TZM.bl cells [2]: 0.156 µg/mL | IC80, titer in TZM.bl cells [2]: 0.884 µg/mL | IC50, titer in TZM.bl cells [3]: 0.058 µg/mL | IC80, titer in TZM.bl cells [3]: 0.319 µg/mL | IC50, titer in TZM.bl cells [4]: 0.172 µg/mL | IC80, titer in TZM.bl cells [4]: 3 µg/mL | IC50, titer in TZM.bl cells [5]: 0.665 µg/mL | IC80, titer in TZM.bl cells [5]: 2.74 µg/mL | IC50, titer in TZM.bl cells [6]: 0.034 µg/mL | IC80, titer in TZM.bl cells [6]: 0.144 µg/mL | IC50, titer in TZM.bl cells [7]: 0.442 µg/mL | IC80, titer in TZM.bl cells [7]: 4.05 µg/mL | IC50, titer in TZM.bl cells [8]: 0.722 µg/mL | IC80, titer in TZM.bl cells [8]: 4.82 µg/mL | IC50, titer in TZM.bl cells [9]: 0.351 µg/mL | IC80, titer in TZM.bl cells [9]: 1.88 µg/mL | IC50, titer in TZM.bl cells [10]: 0.442 µg/mL | IC80, titer in TZM.bl cells [10]: 2.39 µg/mL | IC50, titer in TZM.bl cells [11]: 0.747 µg/mL | IC80, titer in TZM.bl cells [11]: > 10 µg/mL | IC50, titer in TZM.bl cells [12]: 1.67 µg/mL | IC80, titer in TZM.bl cells [12]: 10 µg/mL | IC50, titer in TZM.bl cells [13]: 1.51 µg/mL | IC80, titer in TZM.bl cells [13]: 6.29 µg/mL | IC50, titer in TZM.bl cells [14]: 0.445 µg/mL | IC80, titer in TZM.bl cells [14]: 2.71 µg/mL | IC50, titer in TZM.bl cells [15]: 0.963 µg/mL | IC80, titer in TZM.bl cells [15]: 5.33 µg/mL | IC50, titer in TZM.bl cells [16]: 1.96 µg/mL | IC80, titer in TZM.bl cells [16]: > 10 µg/mL | IC50, titer in TZM.bl cells [21]: 5.16 µg/mL | IC80, titer in TZM.bl cells [21]: > 10 µg/mL | IC50, titer in TZM.bl cells [17]: 2.22 µg/mL | IC80, titer in TZM.bl cells [17]: 9.94 µg/mL | IC50, titer in TZM.bl cells [18]: 1.18 µg/mL | IC80, titer in TZM.bl cells [18]: 7.42 µg/mL | IC50, titer in TZM.bl cells [19]: 0.134 µg/mL | IC80, titer in TZM.bl cells [19]: 1.03 µg/mL | IC50, titer in TZM.bl cells [20]: 0.094 µg/mL | IC80, titer in TZM.bl cells [20]: 1.23 µg/mL

— patent US20230002480A1
